Key:
[1] = biological target: T1, FAM19A5 fragment 5 mutant peptide F5-4 (#4) (human); experiment: ELISA on alanine-substituted F5 peptides (I16 to alanine)
T1 construct: The entry already carries the alanine substitution and Ser for Cys; also called mutant peptide #4
Method: Overlapping peptide fragments (F1-F6, see FIG. 9) of the human FAM19A5 protein were synthesized and conjugated to BSA. Binding of the different anti-FAM19A5 antibodies to the BSA-conjugated peptide fragments F1-F6 was determined by Western blot analysis or ELISA assay. For the Western blot analysis, BSA-conjugated FAM19A5 fragments F1-F6 were separated by SDS polyacrylamide gel electrophoresis and transferred to a nitrocellulose membrane by the standard procedure. The membrane was incubated with the anti-FAM19A5 antibody (e.g., 1-65, 2 μg/ml, 1-65-scFv-rabbit Fc-SSS), and the antigen-antibody complexes were detected with the appropriate secondary antibody conjugated with horse-radish peroxidase (anti-rabbit IgG (Fc specific)-HRP, 1:4000 dilution). For the ELISA assay, the following protocol was used. FAM19A5 fragment F1-F6 (diluted to 1 μg/mL in 50 mM carbonate buffer (Biosesang) or to 20 μg/mL for high concentration analysis) were used to coat the wells of 96-well immuno plates (Thermo Scientific) (100 μL/well) overnight at 4° C. and then subsequently washed twice in 1×PBS. The plates were then blocked with the blocking buffer (100 μL/well) for 1 hour at room temperature. […] The absorption value of each of the wells was detected at 492 nm using a 96-well microplate reader (Molecular Device). […]

FAM19A3 = biological target: T2, FAM19A3 (UniProt Q7Z5A8 31-133, limits assumed); experiment: Western blot on extracts of HEK293T cells stably transfected with FAM19A family genes
T2 construct: Member of the group other FAM19A subfamily proteins; also called other FAM19A subfamily proteins; other proteins in the FAM19A subfamily
Method: (§1) HEK293T cells stably transfected with genes encoding the FAM19A family of proteins were lysed in buffer containing 50 mM Tris-HCL (pH 6.8), 2% SDS, 10% glycerol, 100 mM mercaptoethanol, and bromophenol blue. Whole-cell extracts were resolved on SDS-polyacrylamide (PAGE) gels and transferred to nitrocellulose blotting membranes in a Bio-Rad Trans-Blot electrophoresis apparatus (Hercules, CA, USA). The blots were blocked in Tris-buffered saline containing 0.3% Tween 20 and 5% skim milk, and incubated with anti-FAM19A5 antibody at room temperature for 3 h. They were then washed three times with TBS/0.3% Tween 20. Antibody binding was subsequently detected by incubation with secondary antibodies linked to horseradish peroxidase (Jackson ImmunoReserch Laboratories, West Grove, PA, USA). The blots were washed three times, and immunoreactive bands were visualized by exposure to X-ray film for 0.5 or 10 min, after application of GE healthcare ECL reagents (Buckinghamshire, UK). […] Cells were then blocked with 3% BSA and 0.1% Triton X-100 in PBS for 30 min at room temperature. Primary antibody (the anti-FAM19A5 antibody 1-65) was applied overnight at 4° C. After several washes with PBS, appropriate secondary antibodies were applied for 30 min. Subsequently, the cells were washed, mounted, and observed under a fluorescence or confocal microscope (LSM700; Zeiss, Goettingen, Germany). Nuclei were stained with Hoechst 33342.

FAM19A1 = FAM19A1 (UniProt Q7Z5A9 20-133); experiment: as above
Method: as §1

FAM19A2 = biological target: T3, FAM19A2 (UniProt Q8N3H0 31-131, limits assumed); experiment: as above
T3 construct: Member of the group other FAM19A subfamily proteins; also called other FAM19A subfamily proteins; other proteins in the FAM19A subfamily
Method: as §1

FAM19A4 = biological target: T4, FAM19A4 (UniProt Q96LR4 36-140, limits assumed); experiment: as above
T4 construct: Member of the group other FAM19A subfamily proteins; also called other FAM19A subfamily proteins; other proteins in the FAM19A subfamily
Method: as §1

FAM19A5-M1 = biological target: T5, FAM19A5-M1; experiment: ELISA on phage-displayed FAM19A5 mutants; y axis without label; IgG only bars 0.02 to 0.2
T5 construct: also called FAM19A5 mutant M1
T5 FAM19A5 mutant: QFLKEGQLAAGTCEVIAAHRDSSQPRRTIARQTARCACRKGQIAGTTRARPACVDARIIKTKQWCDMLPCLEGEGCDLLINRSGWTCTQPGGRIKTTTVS

FAM19A5-M4 = biological target: T6, FAM19A5-M4; experiment: as above
T6 construct: also called FAM19A5 mutant M4
T6 FAM19A5 mutant: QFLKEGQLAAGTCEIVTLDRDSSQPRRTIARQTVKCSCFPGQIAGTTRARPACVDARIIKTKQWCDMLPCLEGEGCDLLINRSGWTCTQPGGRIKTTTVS

FAM19A5-M3 = biological target: T7, FAM19A5-M3; experiment: as above
T7 construct: also called FAM19A5 mutant M3
T7 FAM19A5 mutant: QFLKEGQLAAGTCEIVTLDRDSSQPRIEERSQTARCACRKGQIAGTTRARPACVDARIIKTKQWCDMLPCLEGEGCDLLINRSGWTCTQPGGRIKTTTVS

FAM19A5-M5 = biological target: T8, FAM19A5-M5; experiment: as above
T8 construct: also called FAM19A5 mutant M5
T8 FAM19A5 mutant: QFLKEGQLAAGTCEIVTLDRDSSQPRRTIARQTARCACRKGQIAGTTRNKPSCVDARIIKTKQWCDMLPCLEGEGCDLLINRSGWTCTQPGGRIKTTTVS

FAM19A5-M2 = biological target: T9, FAM19A5-M2; experiment: as above
T9 construct: also called FAM19A5 mutant M2
T9 FAM19A5 mutant: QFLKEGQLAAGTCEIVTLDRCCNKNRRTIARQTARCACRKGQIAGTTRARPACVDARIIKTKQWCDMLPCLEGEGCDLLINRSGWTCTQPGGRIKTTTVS

T3 sequence (Q8N3H0 31-131 limits assumed): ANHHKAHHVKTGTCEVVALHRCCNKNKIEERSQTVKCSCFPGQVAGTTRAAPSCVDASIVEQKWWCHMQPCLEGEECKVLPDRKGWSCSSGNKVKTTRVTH
T2 sequence (Q7Z5A8 31-133 limits assumed): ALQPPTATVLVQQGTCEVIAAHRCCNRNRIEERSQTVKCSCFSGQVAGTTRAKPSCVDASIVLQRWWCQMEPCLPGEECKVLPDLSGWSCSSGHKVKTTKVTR
T1 sequence (peptide, as listed by the source mutant): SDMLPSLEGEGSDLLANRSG
T4 sequence (Q96LR4 36-140 limits assumed): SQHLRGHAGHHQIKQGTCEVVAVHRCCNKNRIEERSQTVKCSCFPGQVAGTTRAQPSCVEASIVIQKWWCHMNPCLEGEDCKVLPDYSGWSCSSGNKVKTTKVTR

B1: chimeric anti-FAM19A5-IgG2/4 monoclonal antibody (1-65) (antibody, V domains shown)
VH: AVTLDESGGGLQTPGGALSLVCKASGFTFSSYQMGWVRQAPGKGLEWVGVINKSGSDTSYGSAVKGRATISRDNGQSTVRLQLNNLRAEDTGTYFCAKGSASYITAATIDAWGHGTEVIVSS
VL: ALTQPSSVSANPGETVKITCSGGGSSGYGYGWYQQKSPSSAPLTVIYWNDKRPSDIPSRFSGSKSGSTHTLTITGVQAEDEAVYFCGNDDYSSDSGYVGVFGAGTTLTVL
notes: Chicken-derived variable domains; also called anti-FAM19A5 antibody 1-65; Anti-FAM19A5 (1-65)
B1: no binding [1]; no binding (FAM19A3); no binding (FAM19A1). B1: no binding (FAM19A2); no binding (FAM19A4); binds (FAM19A5-M1). B1: binds (FAM19A5-M4); binds (FAM19A5-M3); binds (FAM19A5-M5). B1: binds (FAM19A5-M2).
